Measurements taken from US20190338048A1.
Values joined by “and” are separate entries in the source; they are usually repeats but may differ in a detail not shown here. Equal values may be shown once. Read-outs that look alike come from different tables or passages of the source.

Legend:
[1] = target: CR8071 lambda light chain L1 with E124R (SMCA design 2826); assay: SMCA LC-MS
[2] = target: CR8071 lambda light chain L1 with E124R (SMCA design 2826); assay: SMCA: four chains co-expressed, protein A, LC-MS
[3] = target: CR8071 lambda light chain L1 with Q38E (SMCA design 34); assay: SMCA LC-MS
[4] = target: CR8071 lambda light chain L1 with Q38E (SMCA design 34); assay: SMCA: four chains co-expressed, protein A, LC-MS
[5] = target: CR8071 lambda light chain (L1) with E124R, design 2826; assay: SMCA LC-MS, System C
[6] = target: CR8071 lambda light chain (L1) with E124R, design 2826; assay: SMCA: co-expression
[7] = target: CR8071 lambda light chain (L1) with S180E, designs 2816 and 2827; assay: SMCA LC-MS, System C
[8] = target: CR8071 lambda light chain (L1) with S180E, designs 2816 and 2827; assay: SMCA: H1, L1, H2, L2 co-expressed in CHO-3E7
[9] = target: CR8071 lambda light chain (L1) with S180E, designs 2816 and 2827; assay: SMCA: co-expression
[10] = target: CR8071 lambda light chain L1, design 2188 (V133G_S176R); assay: SMCA, System C, LC-MS
[11] = target: CR8071 lambda light chain L1, design 2188 (V133G_S176R); assay: SMCA, System C
[12] = target: SGN-CD19a kappa light chain L2 with V133G_S176D (SMCA design 2188); assay: SMCA LC-MS
[13] = target: SGN-CD19a kappa light chain L2 with V133G_S176D (SMCA design 2188); assay: SMCA: four chains co-expressed, protein A, LC-MS
[14] = target: SGN-CD19a kappa light chain L2 with Q124E_Q160E_T180E (SMCA design 2826); assay: SMCA LC-MS
[15] = target: SGN-CD19a kappa light chain L2 with Q124E_Q160E_T180E (SMCA design 2826); assay: SMCA LC-MS; remark: listed apart in the source
[16] = target: SGN-CD19a kappa light chain L2 with Q124E_Q160E_T180E (SMCA design 2826); assay: SMCA: four chains co-expressed, protein A, LC-MS
[17] = target: SGN-CD19a kappa light chain L2 with Q124E_Q160E_T180E (SMCA design 2826); assay: SMCA: four chains co-expressed, protein A, LC-MS; remark: listed apart in the source
[18] = target: SGN-CD19a kappa light chain (L2) with Q124R_Q160K_T178R, design 2816; assay: SMCA LC-MS, System C
[19] = target: SGN-CD19a kappa light chain (L2) with Q124R_Q160K_T178R, design 2816; assay: SMCA: co-expression
[20] = target: SGN-CD19a kappa light chain (L2) with Q124K_T178R, design 2827; assay: SMCA LC-MS, System B
[21] = target: SGN-CD19a kappa light chain (L2) with Q124K_T178R, design 2827; assay: SMCA LC-MS, System C
[22] = target: SGN-CD19a kappa light chain (L2) with Q124E_Q160E_T180E, design 2826; assay: SMCA LC-MS, System B
[23] = target: SGN-CD19a kappa light chain (L2) with Q124E_Q160E_T180E, design 2826; assay: SMCA LC-MS, System C
[24] = target: SGN-CD19a kappa light chain (L2) with Q124E_Q160E_T180E, design 2826; assay: SMCA: co-expression
[25] = target: SGN-CD19a kappa light chain (L2) with T178E_T180E, design 2830; assay: SMCA LC-MS, System B
[26] = target: SGN-CD19a kappa light chain (L2) with T178E_T180E, design 2830; assay: SMCA: co-expression
[27] = target: SGN-CD19a kappa light chain L2 S121K_Q124R_T178R (design 3967, Systems B and C); assay: SMCA: H1, L1, H2, L2 co-expressed, protein A, LC-MS
[28] = target: SGN-CD19a kappa light chain L2 S121K_Q124R_T178R (design 3967, Systems B and C); assay: as above; remark: listed apart in the source
[29] = target: SGN-CD19a kappa light chain L2 S121K_Q124R_T178R (design 3967, Systems B and C); assay: as above; remark: listed apart in the source
[30] = target: SGN-CD19a kappa light chain L2, design 2188 (V133G_S176D); assay: SMCA, System C, LC-MS
[31] = target: SGN-CD19a kappa light chain L2, design 2188 (V133G_S176D); assay: SMCA, System C
[32] = target: SGN-CD19a kappa light chain L2, design 2816 (Q124R_Q160K_T178R); assay: SMCA, System B, LC-MS
[33] = target: SGN-CD19a kappa light chain L2, design 2816 (Q124R_Q160K_T178R); assay: SMCA, System C, LC-MS
[34] = target: SGN-CD19a kappa light chain L2, design 2816 (Q124R_Q160K_T178R); assay: SMCA, System B
[35] = target: SGN-CD19a kappa light chain L2, design 2816 (Q124R_Q160K_T178R); assay: SMCA, System C
[36] = target: SGN-CD19a kappa light chain L2, design 2827 (Q124K_T178R); assay: SMCA, System B, LC-MS
[37] = target: SGN-CD19a kappa light chain L2, design 2827 (Q124K_T178R); assay: SMCA, System C, LC-MS
[38] = target: SGN-CD19a kappa light chain L2, design 2827 (Q124K_T178R); assay: SMCA, System B
[39] = target: SGN-CD19a kappa light chain L2, design 2827 (Q124K_T178R); assay: SMCA, System C
[40] = target: SGN-CD19a kappa light chain L2, design 2830 (T178E_T180E); assay: SMCA, System B, LC-MS
[41] = target: SGN-CD19a kappa light chain L2, design 2830 (T178E_T180E); assay: SMCA, System B

With “CR8071 full-length heavy chain H1 with L143E_K145T (SMCA design 2826)” as the substance, how does the Change in % H1L1 Pairing with respect to wild type [1] read?
The Change in % H1L1 Pairing with respect to wild type was -40.3%.

What about the % H1L1 Pairing [2] of the same substance?
Its % H1L1 Pairing is 27.8%.

With “CR8071 full-length heavy chain H1 with Q39R (SMCA design 34)” as the substance, how does the Change in % H1L1 Pairing with respect to wild type [3] read?
The Change in % H1L1 Pairing with respect to wild type was 24.5%.

What about the % H1L1 Pairing [4] of the same substance?
Its % H1L1 Pairing is 92.6%.

Which results are given for “CR8071 heavy chain (H1, lambda arm) with L143E_K145T, design 2826, full-length IgG1 with heterodimeric Fc”?
Change in % H1L1 Pairing with respect to wild type [5]: -40.3%; % H1L1 Pairing [6]: 27.8%

Which results are given for “CR8071 heavy chain (H1, lambda arm) with Q179K, design 2816, full-length IgG1 with heterodimeric Fc”?
Change in % H1L1 Pairing with respect to wild type [7]: 17%; % H1L1 Pairing [8]: 99.3%

For “CR8071 heavy chain (H1, lambda arm) with S186R, design 2827, full-length IgG1 with heterodimeric Fc”, which Change in % H1L1 Pairing with respect to wild type [7] is on record?
Its Change in % H1L1 Pairing with respect to wild type is 15.9%.

And the % H1L1 Pairing [9]?
The % H1L1 Pairing was 98.2%.

For “CR8071 heavy chain H1, design 2188 (L124E)”, which Change in % H1L1 Pairing with respect to wild type [10] is on record?
The Change in % H1L1 Pairing with respect to wild type was -23.5%.

And the % H1L1 Pairing [11]?
The % H1L1 Pairing was 24.9%.

With “SGN-CD19a full-length heavy chain H2 with L124R (SMCA design 2188)” as the substance, how does the Change in % H2L2 Pairing with respect to wild type [12] read?
The Change in % H2L2 Pairing with respect to wild type was 38.7%.

And the % H2L2 Pairing [13]?
The % H2L2 Pairing was 92.9%.

For “SGN-CD19a full-length heavy chain H2 with Q179K (SMCA design 2826)”, which Change in % H2L2 Pairing with respect to wild type [14] is on record?
The Change in % H2L2 Pairing with respect to wild type was 35.5%.

And the Change in % H2L2 Pairing with respect to wild type [15]?
Its Change in % H2L2 Pairing with respect to wild type is 26.7%.

And the % H2L2 Pairing [16]?
Its % H2L2 Pairing is 89.7%.

What about the % H2L2 Pairing [17] of the same substance?
The % H2L2 Pairing was 98%.

Which results are given for “SGN-CD19a heavy chain (H2, kappa arm) with L143E_K145T, design 2816, full-length IgG1 with heterodimeric Fc”?
Change in % H2L2 Pairing with respect to wild type [18]: 19.8%; % H2L2 Pairing [19]: 79.7%

With “SGN-CD19a heavy chain (H2, kappa arm) with L143E_K145T_Q179E, design 2827, full-length IgG1 with heterodimeric Fc” as the substance, how does the Change in % H2L2 Pairing with respect to wild type [20] read?
The Change in % H2L2 Pairing with respect to wild type was -15.3%.

What about the Change in % H2L2 Pairing with respect to wild type [21] of the same substance?
Its Change in % H2L2 Pairing with respect to wild type is 25.1%.

“SGN-CD19a heavy chain (H2, kappa arm) with Q179K, design 2826, full-length IgG1 with heterodimeric Fc” was tested. Which Change in % H2L2 Pairing with respect to wild type [22] did it give?
Its Change in % H2L2 Pairing with respect to wild type is 35.5%.

And the Change in % H2L2 Pairing with respect to wild type [23]?
The Change in % H2L2 Pairing with respect to wild type was 26.7%.

And the % H2L2 Pairing [24]?
The % H2L2 Pairing was 89.7% and 98%.

What does the source list for “SGN-CD19a heavy chain (H2, kappa arm) with S186R, design 2830, full-length IgG1 with heterodimeric Fc”?
Change in % H2L2 Pairing with respect to wild type [25]: 44.3%; % H2L2 Pairing [26]: 98.5%

Which results are given for “SGN-CD19a heavy chain H2 L143E_K145T_Q179E_K228D (design 3967, Systems B and C)”?
% H2L2 Pairing [27]: 100%; Change in % H2L2 Pairing with respect to wild type [27]: 28.7%; % H2L2 Pairing [28]: 98.6%; Change in % H2L2 Pairing with respect to wild type [29]: 44.4%

“SGN-CD19a heavy chain H2, design 2188 (L124R)” was tested. Which Change in % H2L2 Pairing with respect to wild type [30] did it give?
The Change in % H2L2 Pairing with respect to wild type was 19.9%.

What about the % H2L2 Pairing [31] of the same substance?
Its % H2L2 Pairing is 99.5%.

How did the Change in % H2L2 Pairing with respect to wild type [32] turn out when “SGN-CD19a heavy chain H2, design 2816 (L143E_K145T)” was run?
Its Change in % H2L2 Pairing with respect to wild type is -12.5%.

And the Change in % H2L2 Pairing with respect to wild type [33]?
Its Change in % H2L2 Pairing with respect to wild type is 19.8%.

What about the % H2L2 Pairing [34] of the same substance?
Its % H2L2 Pairing is 25.1%.

And the % H2L2 Pairing [35]?
The % H2L2 Pairing was 79.7%.

What does the source list for “SGN-CD19a heavy chain H2, design 2827 (L143E_K145T_Q179E)”?
Change in % H2L2 Pairing with respect to wild type [36]: -15.3%; Change in % H2L2 Pairing with respect to wild type [37]: 25.1%; % H2L2 Pairing [38]: 22.3%; % H2L2 Pairing [39]: 85%

What does the source list for “SGN-CD19a heavy chain H2, design 2830 (S186R)”?
Change in % H2L2 Pairing with respect to wild type [40]: 44.3%; % H2L2 Pairing [41]: 98.5%
